Laboratory results from patent publication US6348572B1, “Ligands for phosphatase binding assay” (Merck Frosst Canada & Co., priority 1996, dated 2002).
Square brackets hold non-standard residues; d marks the D form. Ends that are not written are not given here. Peptide text beside a SMILES is read from it. * marks the point of attachment. F2Pmp = N[C@@H](Cc1ccc(C(F)(F)P(=O)(O)O)cc1)C(=O)O; Bz = O=C(c1ccccc1)*

Experiments:
[1] = target: Human recombinant PTP1B, containing amino acids 1-320, Cys215Ser mutant, fused to GST enzyme (glutathione S-transferase) (human) (UniProt P18031); assay: SPA raw counts, mutant GST-PTP1B with tritiated BzN-EJJ-CONH2, no anti-GST antibody, no cold tripeptide, first duplicate
[2] = target: Human recombinant PTP1B, containing amino acids 1-320, Cys215Ser mutant, fused to GST enzyme (glutathione S-transferase) (human) (UniProt P18031); assay: SPA raw counts, mutant GST-PTP1B with tritiated BzN-EJJ-CONH2, anti-GST antibody present, no cold tripeptide, second duplicate
[3] = target: Human recombinant PTP1B, containing amino acids 1-320, Cys215Ser mutant, fused to GST enzyme (glutathione S-transferase) (human) (UniProt P18031); assay: SPA raw counts, mutant GST-PTP1B with tritiated BzN-EJJ-CONH2, anti-GST antibody present, no cold tripeptide, first duplicate
[4] = target: Human recombinant PTP1B, containing amino acids 1-320, Cys215Ser mutant, fused to GST enzyme (glutathione S-transferase) (human) (UniProt P18031); assay: SPA raw counts, mutant GST-PTP1B with tritiated BzN-EJJ-CONH2, no anti-GST antibody, no cold tripeptide, second duplicate
[5] = target: Human recombinant PTP1B, containing amino acids 1-320, Cys215Ser mutant, fused to GST enzyme (glutathione S-transferase) (human) (UniProt P18031); assay: GST-PTP1B SPA binding assay, competition with tritiated BzN-EJJ-CONH2, mutated (Ser215) enzyme
[6] = target: Human recombinant PTP1B, containing amino acids 1-320, Cys215Ser mutant, fused to GST enzyme (glutathione S-transferase) (human) (UniProt P18031); assay: SPA raw counts of bound tritiated BzN-EJJ-CONH2 on mutant GST-PTP1B with cold tripeptide, second duplicate; number split over r12 and r13
[7] = target: Human recombinant PTP1B, containing amino acids 1-320, fused to GST enzyme (glutathione S-transferase), wild type (active site cysteine 215) (human) (UniProt P18031); assay: GST-PTP1B SPA binding assay, competition with tritiated BzN-EJJ-CONH2, non-mutated (Cys215) enzyme
[8] = target: Human recombinant PTP1B, containing amino acids 1-320, Cys215Ser mutant, fused to GST enzyme (glutathione S-transferase) (human) (UniProt P18031); assay: SPA raw counts of bound tritiated BzN-EJJ-CONH2 on mutant GST-PTP1B with cold tripeptide, first duplicate; number split over r10 and r11
[9] = target: T1, GST-PTP1B Non-Mutated (Cys215) (Homo sapiens, UniProt P18031); assay: GST-PTP1B SPA binding assay, non-mutated (Cys215) enzyme; competition with tritiated BzN-EJJ-CONH2; conditions: for IC50: non-mutated (Cys215) GST-PTP1B
T1 construct: made in house; host or cells: E. coli
T1 sequence (P18031 1-320): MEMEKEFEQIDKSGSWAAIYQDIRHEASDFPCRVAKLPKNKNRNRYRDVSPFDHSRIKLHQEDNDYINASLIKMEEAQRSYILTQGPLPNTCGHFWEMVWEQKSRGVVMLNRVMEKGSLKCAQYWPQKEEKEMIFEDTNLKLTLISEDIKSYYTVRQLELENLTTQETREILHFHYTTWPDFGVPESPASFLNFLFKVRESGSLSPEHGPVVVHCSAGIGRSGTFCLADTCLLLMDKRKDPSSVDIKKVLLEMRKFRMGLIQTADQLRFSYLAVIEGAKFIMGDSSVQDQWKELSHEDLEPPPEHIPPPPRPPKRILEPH
Method: (§1) Enzyme: Human recombinant PTPLB, containing ammo acids 1-320, (Seq. ID No. 1) fused to GST enzyme (glutathione S-transferase) purified by affinity chromatography. Wild type (Seq. ID No. 1) contains active site cysteine(215), whereas mutant (Seq. ID No. 7) contains active site serine(215).
(§2) Tritiated peptide: Bz-NEJJ-CONH2, Mwt. 808, empirical formula, C32H32T2O12P2F4
(§3) To each well is added the following solutions @ 25° C. in the following chronological order:
(§4) 1. 110 μl of assay buffer.
(§5) 2. 10 μl. of 50 nM tritiated BzN-EJJ-CONH2 in assay buffer (1X) @ 25° C.
(§6) 3. 10 μl. of testing compound in DMSO at 10 different concentrations in serial dilution (final DMSO, about 5% v/v) in duplicate @ 25° C.
(§7) 4. 10 μl. of 3.75 μg/ml purified human recombinant GST-PTP1B in enzyme dilution buffer.
(§8) 5. The plate is shaken for 2 minutes.
(§9) 6. 10 μl. of 0.3 μg/ml anti-glutathione S-transferase (anti-GST) rabbit IgG (Molecular Probes) diluted in antibody dilution buffer @ 25° C.
(§10) 7. The plate is shaken for 2 minutes.
(§11) 8. 50 μl. of protein A-PVT SPA beads (Amersham) @ 25° C.
(§12) 9. The plate is shaken for 5 minutes. The binding signal is quantified on a Microbeta 96-well plate counter.
(§13) 10. The non-specific signal is defined as the enzyme-ligand binding in the absence of anti-GST antibody.
11. 100% binding activity is defined as the enzyme-ligand binding in the presence of anti-GST antibody, but in the absence of the testing ligands with the non-specific binding subtracted.
12. Percentage of inhibition is calculated accordingly.
13. IC50 value is approximated from the non-linear regression fit with the 4-parameter/multiple sites equation (described in: “Robust Statistics”, New York, Wiley, by P. J. Huber (1981) and reported in nM units.

PTP1B = target: T2, PTP1B (Homo sapiens, UniProt P18031); assay: inhibition of PTP1B (stated in text, method not given); type: biochemical; conditions: read-out: active inhibitor of PTP1B (potency, type not given)
T2 sequence (P18031 1-435): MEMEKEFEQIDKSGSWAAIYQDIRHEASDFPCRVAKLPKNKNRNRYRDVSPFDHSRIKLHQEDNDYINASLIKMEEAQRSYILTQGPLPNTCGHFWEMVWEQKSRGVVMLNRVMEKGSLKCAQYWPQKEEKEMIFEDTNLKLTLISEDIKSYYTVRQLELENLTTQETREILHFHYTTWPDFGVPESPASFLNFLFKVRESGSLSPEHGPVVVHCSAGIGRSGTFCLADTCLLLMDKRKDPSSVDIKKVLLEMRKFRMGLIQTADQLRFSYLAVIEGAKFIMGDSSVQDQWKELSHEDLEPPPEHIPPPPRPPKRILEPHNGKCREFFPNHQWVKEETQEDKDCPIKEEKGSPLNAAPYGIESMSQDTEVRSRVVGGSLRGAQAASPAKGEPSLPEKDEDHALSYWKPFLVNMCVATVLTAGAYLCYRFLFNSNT

[10] = target: T3, GST-PTP1B Mutated enzyme (Ser215) (Homo sapiens, UniProt P18031, C215S); assay: GST-PTP1B SPA binding assay, mutated (Ser215) enzyme; competition with tritiated BzN-EJJ-CONH2
T3 construct: made in house; host or cells: bacteria (DH5α named for the transformation; E. coli stated for the wild-type fusion)
T3 sequence (P18031 1-320 C215S): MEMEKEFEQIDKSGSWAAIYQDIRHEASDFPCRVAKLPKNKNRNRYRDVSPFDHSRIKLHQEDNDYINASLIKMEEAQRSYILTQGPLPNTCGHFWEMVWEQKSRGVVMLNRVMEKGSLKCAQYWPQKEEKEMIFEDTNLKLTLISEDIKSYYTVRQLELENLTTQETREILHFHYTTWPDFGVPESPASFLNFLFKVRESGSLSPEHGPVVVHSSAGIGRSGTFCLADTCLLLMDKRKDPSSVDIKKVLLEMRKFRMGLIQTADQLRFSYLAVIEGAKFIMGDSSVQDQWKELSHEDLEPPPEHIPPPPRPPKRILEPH
Method: as §1, §2, §3, §4, §5, §6, §7, §8, §9, §10, §11, §12, §13
11. […]
12. Percentage of inhibition is calculated accordingly. […]

[11] = target: T4, Human recombinant PTP1B, containing amino acids 1-320, Cys215Ser mutant, fused to GST enzyme (glutathione … (human, UniProt P18031 1-320)); assay: GST-PTP1B SPA binding assay, competition with tritiated BzN-EJJ-CONH2, mutated (Ser215) enzyme
T4 construct: ID No. 7 (cDNA); the protein in the assay has Ser at 215; also called GST-PTP-1B Cys215Ser mutant; mutant GST-PTP1B; not shown: N-terminal glutathione S-transferase carrier and the pGEX-2T linker residues
T4 sequence: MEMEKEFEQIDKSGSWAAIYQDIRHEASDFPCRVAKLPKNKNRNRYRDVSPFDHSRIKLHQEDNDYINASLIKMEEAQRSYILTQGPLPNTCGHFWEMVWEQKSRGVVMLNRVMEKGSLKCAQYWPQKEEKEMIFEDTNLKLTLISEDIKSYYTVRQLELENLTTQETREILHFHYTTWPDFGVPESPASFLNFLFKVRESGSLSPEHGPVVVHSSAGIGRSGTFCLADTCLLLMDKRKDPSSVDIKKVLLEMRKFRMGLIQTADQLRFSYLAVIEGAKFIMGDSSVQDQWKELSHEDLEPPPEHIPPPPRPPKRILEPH

[12] = target: T5, Human recombinant PTP1B, containing amino acids 1-320, fused to GST enzyme (glutathione S-transferase), wild … (human, UniProt P18031 1-320); assay: GST-PTP1B SPA binding assay, competition with tritiated BzN-EJJ-CONH2, non-mutated (Cys215) enzyme
T5 construct: ID No. 1, which is the DNA strand; GST is N-terminal (pGEX-2T); also called GST-PTP1B; GST-PTP-1B fusion protein; not shown: N-terminal glutathione S-transferase carrier and the pGEX-2T linker residues
T5 sequence: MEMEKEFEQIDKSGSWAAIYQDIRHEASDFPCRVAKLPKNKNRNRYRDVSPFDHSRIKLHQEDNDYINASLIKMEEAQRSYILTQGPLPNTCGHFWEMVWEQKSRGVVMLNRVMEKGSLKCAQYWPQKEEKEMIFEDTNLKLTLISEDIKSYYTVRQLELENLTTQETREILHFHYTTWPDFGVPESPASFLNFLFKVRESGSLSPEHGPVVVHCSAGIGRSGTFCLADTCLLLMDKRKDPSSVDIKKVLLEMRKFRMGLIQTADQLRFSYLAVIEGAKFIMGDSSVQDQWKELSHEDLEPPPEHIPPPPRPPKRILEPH
Method: 1. 110 μl of assay buffer. 2. 10 μl. of 50 nM tritiated BzN-EJJ-CONH_2 in assay buffer (1X) @ 25° C. 3. 10 μl. of testing compound in DMSO at 10 different concentrations in serial dilution (final DMSO, about 5% v/v) in duplicate @ 25° C. 4. 10 μl. of 3.75 μg/ml purified human recombinant GST-PTP1B in enzyme dilution buffer. 5. The plate is shaken for 2 minutes. 6. 10 μl. of 0.3 μg/ml anti-glutathione S-transferase (anti-GST) rabbit IgG (Molecular Probes) diluted in antibody dilution buffer @ 25° C. 7. The plate is shaken for 2 minutes. 8. 50 μl. of protein A-PVT SPA beads (Amersham) @ 25° C. 9. The plate is shaken for 5 minutes. The binding signal is quantified on a Microbeta 96-well plate counter. 10. The non-specific signal is defined as the enzyme-ligand binding in the absence of anti-GST antibody. 11. 100% binding activity is defined as the enzyme-ligand binding in the presence of anti-GST antibody, but in the absence of the testing ligands with the non-specific binding subtracted. 12. Percentage of inhibition is calculated accordingly.

**Q.** Which results are given for “N-(3,5-Ditritio)benzoyl-L-glutamyl-[4-phosphono(difluoromethyl)]-L-phenylalanyl-[4-phosphono(difluoromethyl)]-L-phenylalanineamide (peptide)”?
**A.** Counts (dpm), no antibody (- control), non-specific signal [1]: 252 dpm; Counts (dpm), antibody (+ control), no competitor [2]: 6380 dpm; Counts (dpm), antibody (+ control), no competitor [3]: 5650 dpm; Counts (dpm), no antibody (- control), non-specific signal [4]: 304 dpm

**Q.** What does the source list for “N-Benzoyl-L-glutamyl-[4-phosphono(difluoromethyl)]-L-phenylalanyl-[4-phosphono(difluoromethyl)]-L-phenylalanineamide (peptide)”?
**A.** IC50 [5]: 8 nM; Counts (dpm) at 62.5 nM tripeptide [6]: 1110 dpm; Counts (dpm) at 125 nM tripeptide [6]: 588 dpm; Counts (dpm) at 250 nM tripeptide [6]: 273 dpm; IC50 [7]: 14 nM; Counts (dpm) at 125 nM tripeptide [8]: 873 dpm; Counts (dpm) at 250 nM tripeptide [8]: 288 dpm

**Q.** What does the source list for `NC(=O)[C@H](Cc1ccc(C(F)(F)P(=O)(O)O)cc1)NC(=O)[C@H](Cc1ccc(C(F)(F)P(=O)(O)O)cc1)NC(=O)[C@H](CCC(=O)O)NC(=O)c1ccccc1` [Example 1, N-Benzoyl-L-glutamyl-[4-phosphono(difluoromethyl)]-L-phenylalanyl-[4-phosphono(difluoromethyl)]-L-phenlalanine Amide] (Bz-Glu-[F2Pmp]-[F2Pmp]-NH2)?
**A.** IC50 [9]: 14 nM; IC50 (PTP1B): 5 nM

**Q.** With `COc1cc(OC)c(OC)cc1CC/N=C\Cc1ncc[nH]1` [Imine, reference compound] as the molecule, how does the inhibition at 2 µM ([9]; at 2 μM, non-mutated (Cys215)) read?
**A.** 67%

**Q.** What about the inhibition at 2 µM ([10]; at 2 μM, mutated (Ser215)) of the same molecule?
**A.** 10%

**Q.** Which results are given for `Cc1cc(Cl)c2c(c1O)C(=O)C=CC2=O` [Quinone, reference compound]?
**A.** IC50 [9]: 4000 nM; IC50 ([10]; mutated (Ser215) GST-PTP1B): > 100000 nM

B1: DADE(F2PMP)L hexapeptide (T. Burke et al. Biochem. Biophys. Res. Comm. 204, 129, (1994)) (peptide)
peptide: DADE[F2Pmp]L
notes: Terminal caps, if any, stand only in a structure drawing that is not in the text; also called hexamer peptide containing the phosphotyrosyl mimetic F2Pmp
**Q.** For B1, which IC50 [11] is on record?
**A.** 100 nM

**Q.** And the IC50 [12]?
**A.** 400 nM
